The experiment has as its target recombinant full-length human PrP^C (AA23-231) (human) (UniProt P04156).

“Poly-d-glutamic acid sodium salt (peptide)”: the IC50 – broadly, the concentration that gives 50% inhibition – was above 1000 nM.

Source of the values: US20210268016A1.
